Data reported in article doi:10.1101/2025.11.29.691178 (bioRxiv, 2025).

T1: human biliverdin reductase B (BLVRB), recombinant, full length (human, UniProt P30043 1-206)
T1 sequence: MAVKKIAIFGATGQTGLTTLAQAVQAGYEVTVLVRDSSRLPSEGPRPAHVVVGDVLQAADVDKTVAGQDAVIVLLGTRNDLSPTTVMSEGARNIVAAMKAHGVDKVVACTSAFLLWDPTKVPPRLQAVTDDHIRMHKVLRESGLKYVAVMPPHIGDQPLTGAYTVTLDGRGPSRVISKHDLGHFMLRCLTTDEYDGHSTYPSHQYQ

T2: Band 3 (SLC4A1), endogenous in human red blood cells (human (endogenous in RBCs), UniProt P02730 1-911)
T2 sequence: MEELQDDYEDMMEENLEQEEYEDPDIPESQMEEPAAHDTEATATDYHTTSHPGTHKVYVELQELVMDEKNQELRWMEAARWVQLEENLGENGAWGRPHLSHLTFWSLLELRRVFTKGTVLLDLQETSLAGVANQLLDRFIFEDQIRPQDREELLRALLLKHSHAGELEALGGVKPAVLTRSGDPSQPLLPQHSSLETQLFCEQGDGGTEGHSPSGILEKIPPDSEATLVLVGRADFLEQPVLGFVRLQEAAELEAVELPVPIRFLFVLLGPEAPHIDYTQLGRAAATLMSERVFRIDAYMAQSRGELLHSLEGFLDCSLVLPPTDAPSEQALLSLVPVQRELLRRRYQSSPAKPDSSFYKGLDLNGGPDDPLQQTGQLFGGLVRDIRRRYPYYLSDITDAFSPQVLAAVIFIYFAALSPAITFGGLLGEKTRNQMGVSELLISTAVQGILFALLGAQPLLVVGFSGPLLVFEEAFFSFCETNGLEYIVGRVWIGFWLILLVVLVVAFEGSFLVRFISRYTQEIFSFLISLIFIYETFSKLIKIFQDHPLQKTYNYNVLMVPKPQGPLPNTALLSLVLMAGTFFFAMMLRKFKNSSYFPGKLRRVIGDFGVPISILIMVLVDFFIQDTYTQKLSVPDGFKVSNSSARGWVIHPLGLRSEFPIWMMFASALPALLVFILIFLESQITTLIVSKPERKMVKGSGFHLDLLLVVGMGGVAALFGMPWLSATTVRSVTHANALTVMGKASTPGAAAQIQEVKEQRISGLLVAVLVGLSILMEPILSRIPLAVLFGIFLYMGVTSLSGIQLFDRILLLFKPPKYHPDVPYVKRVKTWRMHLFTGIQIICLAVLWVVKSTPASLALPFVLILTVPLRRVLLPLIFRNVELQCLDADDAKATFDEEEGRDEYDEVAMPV


Tests used:
[1] = molecular target: T1, human biliverdin reductase B (BLVRB), …; assay: NMR titration
[2] = molecular target: T2, Band 3 (SLC4A1), endogenous in human …; assay: cross-linking

binding result [1] | fold change of cross-links, hypoxia against normoxia [2] [fold] | Binder
binds | – | Band 3 (SLC4A1) N-terminal residues 1-56, recombinant (domain or fragment) MEELQDDYEDMMEENLEQEEYEDPDIPESQMEEPAAHDTEATATDYHTTSHPGTHK
– | 3 | hemoglobin (deoxyhemoglobin tetramer), endogenous in human red blood cells (complex) chain 1: not shown chain 2: not shown
binds | – | MEELQDDYEDMMEENLEQEEYEDPDIPESQ (domain or fragment) [Band 3 (SLC4A1) N-terminal residues 1-30, recombinant]
